In article PMC6370319 (Cell reports, 2019):
Residue numbers refer to the chain shown, from its start. Numbers in names are those of the source.

B1: FNIP1-D-His6 (domain or fragment)
chain: TEWDIPRNESSDSALGDSESEDTGHDMTRQVSSYYGGEQEDWAEEDEIPFPGSKLIEVSAVQPNIANFGRSLLGGYCSSYVPDFVLQGIGSDERFRQCLMSDLSHAVQHPVLDEPIAEAVCIIADMDKWTVQVASSQRRVTDNKLGKEVLVSSLVSNLLHSTLQLYKHNLSPNFCVMHLEDRLQELYFKSKMLSEYLRGQMRVHVKELGVVLGIESSDLPLLAAVASTHSPYVAQILL
B2: FNIP1-D-His6 S948A (domain or fragment)
chain: B1 chain with S20A
B3: FNIP1-D-His6 S938A (domain or fragment)
chain: B1 chain with S10A
B4: FNIP1-D-His6 S941A (domain or fragment)
chain: B1 chain with S13A
B5: FNIP1-D-His6 S946A (domain or fragment)
chain: B1 chain with S18A
B6: FNIP1-D-His6 S939A (domain or fragment)
chain: B1 chain with S11A

Each molecule was assayed against Hsp90α (UniProt P07900) (assay: FNIP1-FLAG IP from yeast, Hsp90α blot). Conditions: reference: wild type FNIP1-FLAG; sites S948.
FNIP1 (from UniProt Q8TF40) S948A was tested, and the “binding against the reference” value was “weaker”.

Each molecule was assayed against T1, OGT-FLAG (human, UniProt O15294-3 1-1036) (assay: pull-down). Conditions: not given.
T1 sequence: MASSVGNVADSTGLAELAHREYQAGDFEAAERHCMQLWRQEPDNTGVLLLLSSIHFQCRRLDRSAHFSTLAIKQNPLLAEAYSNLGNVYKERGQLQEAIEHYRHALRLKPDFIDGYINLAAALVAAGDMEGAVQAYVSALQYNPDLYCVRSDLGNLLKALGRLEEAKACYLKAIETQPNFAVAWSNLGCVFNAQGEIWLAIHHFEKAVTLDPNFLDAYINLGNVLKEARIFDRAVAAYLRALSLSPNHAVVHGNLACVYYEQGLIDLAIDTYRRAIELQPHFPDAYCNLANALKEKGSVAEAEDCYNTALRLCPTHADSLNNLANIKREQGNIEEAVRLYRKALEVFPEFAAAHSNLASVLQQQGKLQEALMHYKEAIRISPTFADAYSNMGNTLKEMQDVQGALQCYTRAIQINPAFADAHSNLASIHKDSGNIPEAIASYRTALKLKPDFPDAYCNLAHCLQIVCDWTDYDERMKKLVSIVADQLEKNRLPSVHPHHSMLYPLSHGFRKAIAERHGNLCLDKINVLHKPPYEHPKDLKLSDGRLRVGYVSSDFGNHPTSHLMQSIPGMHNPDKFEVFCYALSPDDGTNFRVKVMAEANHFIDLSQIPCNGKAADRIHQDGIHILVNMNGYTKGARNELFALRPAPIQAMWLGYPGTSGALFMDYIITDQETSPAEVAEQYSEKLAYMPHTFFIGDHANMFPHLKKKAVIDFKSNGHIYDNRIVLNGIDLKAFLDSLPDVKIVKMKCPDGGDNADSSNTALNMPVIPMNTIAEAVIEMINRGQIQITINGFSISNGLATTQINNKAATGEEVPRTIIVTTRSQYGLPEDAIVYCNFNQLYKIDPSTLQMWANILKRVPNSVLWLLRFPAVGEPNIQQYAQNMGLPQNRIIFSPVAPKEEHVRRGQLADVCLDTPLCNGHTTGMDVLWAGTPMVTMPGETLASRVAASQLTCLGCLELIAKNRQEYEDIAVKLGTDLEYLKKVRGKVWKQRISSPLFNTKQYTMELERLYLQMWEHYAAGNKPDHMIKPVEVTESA
B1: binds.
B2: binds.
B3: binds.
B4: binds.
B5: binds.
B6: binds.
